# Entries after “also recorded” stand apart in the source; their conditions may differ. Where two headings read alike, the source gives them in different places. No end group written: not given here.
# Columns and labels:
# T lymphocytes = assay: in vitro lymphocyte proliferation assay; assay type: cell-based
# From the text: The conditions of the assay are those described in Horn et al., mentioned above.
# [1] = test system: guinea pigs immunized with live BCG; assay type: in vivo, guinea pig; settings: for loss of antigenic activity during digestion with α-mannosidase: 0.2 μg intradermal
# [2] = test system: guinea pigs immunized with heat-inactivated BCG; assay type: in vivo, guinea pig
# CD4+ T lymphocytes = assay type: cell-based, human; settings: for difference of response between tuberculosis patients and vaccinated controls (in words): 18 patients versus 12 BCG-vaccinated controls
# [3] = test system: guinea pigs immunized with the plasmids pAG831 or pAG832; assay: delayed-type hypersensitivity assay, guinea pigs immunized with naked DNA encoding Apa; settings: guinea pig, in vivo
# [4] = test system: guinea pigs immunized with the Apa fusion peptide; assay: delayed hypersensitivity reactions, guinea pigs immunized with the Apa fusion peptide; assay type: in vivo, guinea pig
# [5] = test system: CD4+ T lymphocytes originating from animals infected with M. tuberculosis or immunized with BCG; settings: cited from earlier work
# [6] = guinea pigs immunized with live BCG
molecule,measurement,setting,value
"Lip: mannosylated glycopeptide purified from M. tuberculosis culture medium, derived from the protein encoded by the Rv1796 gene (SEQ ID NO:3) (Ac-TIPTTETPPPPQTVTLSPVPPQTVTVIPAPPPEEG; also: mannosylated; listed as Mycobacterium tuberculosis)",T-lymphocyte proliferation,T lymphocytes; T lymphocytes treated with an antibody directed against CD4 molecules,marginal
same,T-lymphocyte proliferation,T lymphocytes; glycopeptide treated with α-mannosidase,marginal
same,T-lymphocyte proliferation,T lymphocytes; native glycopeptide,dependent on the peptide concentration
same,"erythema reaction, peptide treated with subtilisin",[1]; 0.02 μg in 0.1 ml,negative
same,"erythema reaction, peptide treated with α-mannosidase",[1]; 0.02 μg in 0.1 ml,negative
same,antigenic activity after deglycosylation,[1]; after α-mannosidase for 24 h at 37° C.,less than 30 000 TU/mg
same,antigenic activity,[1]; [6],1 000 000 TU/mg
same,delayed-type hypersensitivity reaction (in words),[1]; [6],very active
same,antigenic activity after the action of subtilisin,[1]; subtilisin 24 h at 37° C.,abolishes the antigenic activity
same,activity relative to PPD at an equivalent amount of proteins,[1]; versus standard purified proteins from M. tuberculosis (PPD),at least 10 times
same,loss of antigenic activity after α-mannosidase,[1]; α-mannosidase for 24 h at 37° C.,more than 95%
same,delayed-type hypersensitivity reaction (in words),[2],relatively inactive
H-DPEPAPPVPTTAASPPSTAAAPPAPATPVAPPPPAPAAAT-NH2 [glycosylated Apa peptide],stimulation of CD4+ lymphocytes from the controls,CD4+ T lymphocytes,does not stimulate
same,proportion of tuberculosis patients positive in the assay,"CD4+ T lymphocytes; 18 tuberculosis patients, six days stimulation",13/18
"Native Apa: protein secreted by M. tuberculosis, product of the Rv 1860 gene, purified from the culture supernatant (protein, UniProt P9WIR7 40-325, looked up, glycosylated native, protein secreted by M. tuberculosis, product of the Rv 1860 gene, purified from the culture supernatant) Alanine and proline-rich …: DPEPAPPVPTTAASPPSTAAAPPAPATPVAPPPPAAANTPNAQPGDPNAAPPPADPNAPPPPVIAPNAPQPVRIDNPVGGFSFALPAGWVESDAAHFDYGSALLSKTTGDPPFPGQPPPVANDTRIVLGRLDQKLYASAEATDSKAAARLGSDMGEFYMPYPGTRINQETVSLDANGVSGSASYYEVKFSDPSKPNGQIWTGVIGSPAANAPDAGPPQRWFVVWLGTANNPVDKGAAKALAESIRPLVAPPPAPAPAPAEPAPAPAPAGEVAPTPTTPTPQRTLPA",delayed-type hypersensitivity / CD4+ T lymphocyte response (in words),[3],"equivalent; also recorded: develop, in the vast majority of cases, an immune response"
same,loss of antigenic activity,[1]; Apa molecules on which there remain 3 to 6 mannose residues,86%
same,loss of antigenic activity during digestion with α-mannosidase,[1]; digestion 1 h,66%
same,loss of antigenic activity during digestion with α-mannosidase,[1]; digestion 4 h,86%
same,delayed-type hypersensitivity reaction (in words),[1]; [6],antigenic; also recorded: show a delayed-type hypersensitivity reaction; also recorded: considerable
same,sensitization (in words),[4],identical
same,difference of response between tuberculosis patients and vaccinated controls (in words),CD4+ T lymphocytes,stimulates more frequently the response from the patients
same,loss of antigenicity after demannosylation,"[5]; α-mannosidase, TFMS or expression in E. coli",100 fold
"E. Coli recombinant Apa: deglycosylated recombinant Apa produced in E. coli (protein, UniProt P9WIR7 40-325, looked up, recombinant, non-glycosylated, E. coli) Alanine and proline-rich …: DPEPAPPVPTTAASPPSTAAAPPAPATPVAPPPPAAANTPNAQPGDPNAAPPPADPNAPPPPVIAPNAPQPVRIDNPVGGFSFALPAGWVESDAAHFDYGSALLSKTTGDPPFPGQPPPVANDTRIVLGRLDQKLYASAEATDSKAAARLGSDMGEFYMPYPGTRINQETVSLDANGVSGSASYYEVKFSDPSKPNGQIWTGVIGSPAANAPDAGPPQRWFVVWLGTANNPVDKGAAKALAESIRPLVAPPPAPAPAPAEPAPAPAPAGEVAPTPTTPTPQRTLPA",delayed-type hypersensitivity / CD4+ T lymphocyte response (in words),[3],of the same strength as the responses observed with the glycosylated native antigen
same,delayed-type hypersensitivity / CD4+ T lymphocyte response (in words),[3]; listed as E. coli rApa,equivalent
same,delayed-type hypersensitivity reaction (in words),"[1]; guinea pigs immunized with live BCG, listed as molecules produced in E. coli",very weak or absent
same,delayed-type hypersensitivity reaction (in words),"[1]; guinea pigs immunized with live BCG, listed as non-glycosylated recombinant Apa produced in E. coli",no reaction or develop a greatly decreased reaction
"glycosylated Apa produced by Mycobacterium smegmatis: Apa produced by M. smegmatis, overall mannose composition slightly different from that of M. tuberculosis Apa (protein, UniProt P9WIR7 40-325, looked up, glycosylated, produced in M. smegmatis) Alanine and proline-rich …: DPEPAPPVPTTAASPPSTAAAPPAPATPVAPPPPAAANTPNAQPGDPNAAPPPADPNAPPPPVIAPNAPQPVRIDNPVGGFSFALPAGWVESDAAHFDYGSALLSKTTGDPPFPGQPPPVANDTRIVLGRLDQKLYASAEATDSKAAARLGSDMGEFYMPYPGTRINQETVSLDANGVSGSASYYEVKFSDPSKPNGQIWTGVIGSPAANAPDAGPPQRWFVVWLGTANNPVDKGAAKALAESIRPLVAPPPAPAPAPAEPAPAPAPAGEVAPTPTTPTPQRTLPA",decrease of antigenic activity versus Apa produced by M. tuberculosis,[5],approximately 10 fold
"Deglycosylated Apa: deglycosylated Apa protein prepared as described in example 1 (digestion with α-mannosidase) (protein, UniProt P9WIR7 40-325, looked up, deglycosylated) Alanine and proline-rich …: DPEPAPPVPTTAASPPSTAAAPPAPATPVAPPPPAAANTPNAQPGDPNAAPPPADPNAPPPPVIAPNAPQPVRIDNPVGGFSFALPAGWVESDAAHFDYGSALLSKTTGDPPFPGQPPPVANDTRIVLGRLDQKLYASAEATDSKAAARLGSDMGEFYMPYPGTRINQETVSLDANGVSGSASYYEVKFSDPSKPNGQIWTGVIGSPAANAPDAGPPQRWFVVWLGTANNPVDKGAAKALAESIRPLVAPPPAPAPAPAEPAPAPAPAGEVAPTPTTPTPQRTLPA",delayed-type hypersensitivity / CD4+ T lymphocyte response (in words),[3],of the same strength as the responses observed with the glycosylated native antigen
same,delayed-type hypersensitivity reaction (in words),[1]; [6],very weak or absent
same,sensitization (in words),[4],identical
same,difference of response between tuberculosis patients and vaccinated controls (in words),CD4+ T lymphocytes,this difference between the groups is lost
